Assay results taken from article PMC12592476.

Tests used:
[1] = target: bovine brain Arp2/3 complex (bovine) (UniProt P61157); assay: ITC; Coro7 CA in the syringe, ADP-bound Arp2/3 complex in the 1.44 mL cell; 25 °C; 20 mM HEPES pH 7.5, 100 mM KCl, 1 mM MgCl2, 1 mM EGTA, 1 mM DTT, 0.2 mM ADP
[2] = target: bovine brain Arp2/3 complex (bovine) (UniProt P61157); assay: ITC; Coro7 CA in the syringe, ATP-bound Arp2/3 complex in the 1.44 mL cell; 25 °C; 20 mM HEPES pH 7.5, 100 mM KCl, 1 mM MgCl2, 1 mM EGTA, 1 mM DTT, 0.2 mM ATP

Chain of human Coro7 CA (C-terminal Central-Acidic region of coronin 7) (P57737 888-925): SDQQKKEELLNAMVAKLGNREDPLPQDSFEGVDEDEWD

Kd [1]: 1000 nM
stoichiometry N [1]: 1
Kd [2]: 1000 nM
stoichiometry N [2]: 1
Substance: human Coro7 CA (C-terminal Central-Acidic region of coronin 7) (from UniProt P57737-1 888-925) (domain or fragment)
